Results published in US20140087995A1 (published 2014).
Numbered stars: 1 amine (or outer) side, 2 acyl side, 3 side chain; on linkers, the order of the positions; unused ones are H or OH. Bridge positions count the residues as written; N and C are the ends. Side chains are listed from the residue outwards. Ends that are not written are not given here. * marks the point of attachment. C20 diacid = O=C(O)CCCCCCCCCCCCCCCCCCC(=O)*; γGlu = O=C(O)[C@H](CCC(=O)[*:2])N[*:1]

T1: human calcitonin receptor (human, UniProt P30988 25-474)
T1 construct: whole, on cells; also called hCTR; hCT
T1 sequence (looked up): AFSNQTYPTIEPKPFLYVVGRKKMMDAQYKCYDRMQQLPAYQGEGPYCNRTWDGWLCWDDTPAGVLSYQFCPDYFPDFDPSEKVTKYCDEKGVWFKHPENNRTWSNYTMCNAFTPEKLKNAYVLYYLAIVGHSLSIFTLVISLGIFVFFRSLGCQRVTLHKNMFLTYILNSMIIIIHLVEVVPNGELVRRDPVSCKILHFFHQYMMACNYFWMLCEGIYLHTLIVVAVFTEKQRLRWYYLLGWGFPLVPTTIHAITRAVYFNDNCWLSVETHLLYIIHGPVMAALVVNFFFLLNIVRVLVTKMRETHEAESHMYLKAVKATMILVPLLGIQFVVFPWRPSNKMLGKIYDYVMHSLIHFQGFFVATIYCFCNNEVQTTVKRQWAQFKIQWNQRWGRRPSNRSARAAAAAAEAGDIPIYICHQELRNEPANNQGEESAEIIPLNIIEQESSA


Key:
[1] = biological target: T1, human calcitonin receptor; experiment: SPA radioligand competition (125I-calcitonin), membranes of BHK cells with human calcitonin receptor
How it was run: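 BHK hCTR membranes 35 ng/μL + SPA beads 0.05 mg/well; buffer 50 mM Hepes pH 7.4, 1 mM CaCl2, 5 mM MgCl₂, 0.1% OA, 0.02% Tween20. 120 min, 25° C., shaking. Scintillation count; IC50 by one-site binding competition.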

[2] = biological target: T1, human calcitonin receptor; experiment: ratio of IC50 at human calcitonin receptor to IC50 at human amylin receptor (SPA competition assays)
How it was run: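 Membranes (35 ng/μL final) + SPA beads, 50 mM Hepes pH 7.4 buffer with 1 mM CaCl2, 5 mM MgCl₂, 0.1% OA, 0.02% Tween20; 120 min, 25° C, shaking; centrifuged, counted; IC₅₀ by one-site binding competition.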

Binder | IC50 [1] [nM] | Ratio hCT/hAmylin binding [2]
K([γGlu-γGlu-C20 diacid])CNTATCATQRLAEFLRHSSPNFGAIPSSTNVGSRTY-NH2 (disulfide 2-7; N-terminus assumed; SMILES CC[C@H](C)[C@H](NC(=O)[C@H](C)NC(=O)CNC(=O)[C@H](Cc1ccccc1)NC(=O)[C@H](CC(N)=O)NC(=O)[C@@H]1CCCN1C(=O)[C@H](CO)NC(=O)[C@H](CO)NC(=O)[C@H](Cc1c[nH]cn1)NC(=O)[C@H](CCCNC(=N)N)NC(=O)[C@H](CC(C)C)NC(=O)[C@H](Cc1ccccc1)NC(=O)[C@H](CCC(=O)O)NC(=O)[C@H](C)NC(=O)[C@H](CC(C)C)NC(=O)[C@H](CCCNC(=N)N)NC(=O)[C@H](CCC(N)=O)NC(=O)[C@@H](NC(=O)[C@H](C)NC(=O)[C@@H]1CSSC[C@H](NC(=O)[C@@H](N)CCCCNC(=O)CC[C@H](NC(=O)CC[C@H](NC(=O)CCCCCCCCCCCCCCCCCCC(=O)O)C(=O)O)C(=O)O)C(=O)N[C@@H](CC(N)=O)C(=O)N[C@@H]([C@@H](C)O)C(=O)N[C@@H](C)C(=O)N[C@@H]([C@@H](C)O)C(=O)N1)[C@@H](C)O)C(=O)N1CCC[C@H]1C(=O)N[C@@H](CO)C(=O)N[C@@H](CO)C(=O)N[C@H](C(=O)N[C@@H](CC(N)=O)C(=O)N[C@H](C(=O)NCC(=O)N[C@@H](CO)C(=O)N[C@@H](CCCNC(=N)N)C(=O)N[C@H](C(=O)N[C@@H](Cc1ccc(O)cc1)C(N)=O)[C@@H](C)O)C(C)C)[C@@H](C)O, also called compound 89) | 32.5 | 28
K([γGlu-γGlu-C20 diacid])CNTATCATQRLAEFLRHSSPNFGAIPSSTNVGHETY-NH2 (disulfide 2-7; N-terminus assumed; SMILES CC[C@H](C)[C@H](NC(=O)[C@H](C)NC(=O)CNC(=O)[C@H](Cc1ccccc1)NC(=O)[C@H](CC(N)=O)NC(=O)[C@@H]1CCCN1C(=O)[C@H](CO)NC(=O)[C@H](CO)NC(=O)[C@H](Cc1c[nH]cn1)NC(=O)[C@H](CCCNC(=N)N)NC(=O)[C@H](CC(C)C)NC(=O)[C@H](Cc1ccccc1)NC(=O)[C@H](CCC(=O)O)NC(=O)[C@H](C)NC(=O)[C@H](CC(C)C)NC(=O)[C@H](CCCNC(=N)N)NC(=O)[C@H](CCC(N)=O)NC(=O)[C@@H](NC(=O)[C@H](C)NC(=O)[C@@H]1CSSC[C@H](NC(=O)[C@@H](N)CCCCNC(=O)CC[C@H](NC(=O)CC[C@H](NC(=O)CCCCCCCCCCCCCCCCCCC(=O)O)C(=O)O)C(=O)O)C(=O)N[C@@H](CC(N)=O)C(=O)N[C@@H]([C@@H](C)O)C(=O)N[C@@H](C)C(=O)N[C@@H]([C@@H](C)O)C(=O)N1)[C@@H](C)O)C(=O)N1CCC[C@H]1C(=O)N[C@@H](CO)C(=O)N[C@@H](CO)C(=O)N[C@H](C(=O)N[C@@H](CC(N)=O)C(=O)N[C@H](C(=O)NCC(=O)N[C@@H](Cc1c[nH]cn1)C(=O)N[C@@H](CCC(=O)O)C(=O)N[C@H](C(=O)N[C@@H](Cc1ccc(O)cc1)C(N)=O)[C@@H](C)O)C(C)C)[C@@H](C)O) | 15.2 | 29.1
K([γGlu-γGlu-C20 diacid])CNTATCATQRLAEFLRHSSPNFGAIPSSTNVGHNTY-NH2 (disulfide 2-7; N-terminus assumed; SMILES CC[C@H](C)[C@H](NC(=O)[C@H](C)NC(=O)CNC(=O)[C@H](Cc1ccccc1)NC(=O)[C@H](CC(N)=O)NC(=O)[C@@H]1CCCN1C(=O)[C@H](CO)NC(=O)[C@H](CO)NC(=O)[C@H](Cc1c[nH]cn1)NC(=O)[C@H](CCCNC(=N)N)NC(=O)[C@H](CC(C)C)NC(=O)[C@H](Cc1ccccc1)NC(=O)[C@H](CCC(=O)O)NC(=O)[C@H](C)NC(=O)[C@H](CC(C)C)NC(=O)[C@H](CCCNC(=N)N)NC(=O)[C@H](CCC(N)=O)NC(=O)[C@@H](NC(=O)[C@H](C)NC(=O)[C@@H]1CSSC[C@H](NC(=O)[C@@H](N)CCCCNC(=O)CC[C@H](NC(=O)CC[C@H](NC(=O)CCCCCCCCCCCCCCCCCCC(=O)O)C(=O)O)C(=O)O)C(=O)N[C@@H](CC(N)=O)C(=O)N[C@@H]([C@@H](C)O)C(=O)N[C@@H](C)C(=O)N[C@@H]([C@@H](C)O)C(=O)N1)[C@@H](C)O)C(=O)N1CCC[C@H]1C(=O)N[C@@H](CO)C(=O)N[C@@H](CO)C(=O)N[C@H](C(=O)N[C@@H](CC(N)=O)C(=O)N[C@H](C(=O)NCC(=O)N[C@@H](Cc1c[nH]cn1)C(=O)N[C@@H](CC(N)=O)C(=O)N[C@H](C(=O)N[C@@H](Cc1ccc(O)cc1)C(N)=O)[C@@H](C)O)C(C)C)[C@@H](C)O, also called compound 87) | 22.5 | 35.6

Further binders by falling IC50 [1], results first:

IC50 [1] [nM] | Ratio hCT/hAmylin binding [2] | Binder
34.9 | 46.5 | K([γGlu-γGlu-C20 diacid])CNTATCATQRLAEFLRHSSPNFGAIPSSTNVGRNTY-NH2 (disulfide 2-7; N-terminus assumed; SMILES CC[C@H](C)[C@H](NC(=O)[C@H](C)NC(=O)CNC(=O)[C@H](Cc1ccccc1)NC(=O)[C@H](CC(N)=O)NC(=O)[C@@H]1CCCN1C(=O)[C@H](CO)NC(=O)[C@H](CO)NC(=O)[C@H](Cc1c[nH]cn1)NC(=O)[C@H](CCCNC(=N)N)NC(=O)[C@H](CC(C)C)NC(=O)[C@H](Cc1ccccc1)NC(=O)[C@H](CCC(=O)O)NC(=O)[C@H](C)NC(=O)[C@H](CC(C)C)NC(=O)[C@H](CCCNC(=N)N)NC(=O)[C@H](CCC(N)=O)NC(=O)[C@@H](NC(=O)[C@H](C)NC(=O)[C@@H]1CSSC[C@H](NC(=O)[C@@H](N)CCCCNC(=O)CC[C@H](NC(=O)CC[C@H](NC(=O)CCCCCCCCCCCCCCCCCCC(=O)O)C(=O)O)C(=O)O)C(=O)N[C@@H](CC(N)=O)C(=O)N[C@@H]([C@@H](C)O)C(=O)N[C@@H](C)C(=O)N[C@@H]([C@@H](C)O)C(=O)N1)[C@@H](C)O)C(=O)N1CCC[C@H]1C(=O)N[C@@H](CO)C(=O)N[C@@H](CO)C(=O)N[C@H](C(=O)N[C@@H](CC(N)=O)C(=O)N[C@H](C(=O)NCC(=O)N[C@@H](CCCNC(=N)N)C(=O)N[C@@H](CC(N)=O)C(=O)N[C@H](C(=O)N[C@@H](Cc1ccc(O)cc1)C(N)=O)[C@@H](C)O)C(C)C)[C@@H](C)O, also called compound 88)
17.5 | 53.6 | K([γGlu-γGlu-C20 diacid])CNTATCATQRLAEFLRHSSPNFGAIPSSTNVGPRTY-NH2 (disulfide 2-7; N-terminus assumed; SMILES CC[C@H](C)[C@H](NC(=O)[C@H](C)NC(=O)CNC(=O)[C@H](Cc1ccccc1)NC(=O)[C@H](CC(N)=O)NC(=O)[C@@H]1CCCN1C(=O)[C@H](CO)NC(=O)[C@H](CO)NC(=O)[C@H](Cc1c[nH]cn1)NC(=O)[C@H](CCCNC(=N)N)NC(=O)[C@H](CC(C)C)NC(=O)[C@H](Cc1ccccc1)NC(=O)[C@H](CCC(=O)O)NC(=O)[C@H](C)NC(=O)[C@H](CC(C)C)NC(=O)[C@H](CCCNC(=N)N)NC(=O)[C@H](CCC(N)=O)NC(=O)[C@@H](NC(=O)[C@H](C)NC(=O)[C@@H]1CSSC[C@H](NC(=O)[C@@H](N)CCCCNC(=O)CC[C@H](NC(=O)CC[C@H](NC(=O)CCCCCCCCCCCCCCCCCCC(=O)O)C(=O)O)C(=O)O)C(=O)N[C@@H](CC(N)=O)C(=O)N[C@@H]([C@@H](C)O)C(=O)N[C@@H](C)C(=O)N[C@@H]([C@@H](C)O)C(=O)N1)[C@@H](C)O)C(=O)N1CCC[C@H]1C(=O)N[C@@H](CO)C(=O)N[C@@H](CO)C(=O)N[C@H](C(=O)N[C@@H](CC(N)=O)C(=O)N[C@H](C(=O)NCC(=O)N1CCC[C@H]1C(=O)N[C@@H](CCCNC(=N)N)C(=O)N[C@H](C(=O)N[C@@H](Cc1ccc(O)cc1)C(N)=O)[C@@H](C)O)C(C)C)[C@@H](C)O, also called compound 110)
8.56 | 49.8 | K([γGlu-γGlu-C20 diacid])CNTATCATQRLADFLRHSSPNFGAIPSSTNVGPETY-NH2 (disulfide 2-7; N-terminus assumed; SMILES CC[C@H](C)[C@H](NC(=O)[C@H](C)NC(=O)CNC(=O)[C@H](Cc1ccccc1)NC(=O)[C@H](CC(N)=O)NC(=O)[C@@H]1CCCN1C(=O)[C@H](CO)NC(=O)[C@H](CO)NC(=O)[C@H](Cc1c[nH]cn1)NC(=O)[C@H](CCCNC(=N)N)NC(=O)[C@H](CC(C)C)NC(=O)[C@H](Cc1ccccc1)NC(=O)[C@H](CC(=O)O)NC(=O)[C@H](C)NC(=O)[C@H](CC(C)C)NC(=O)[C@H](CCCNC(=N)N)NC(=O)[C@H](CCC(N)=O)NC(=O)[C@@H](NC(=O)[C@H](C)NC(=O)[C@@H]1CSSC[C@H](NC(=O)[C@@H](N)CCCCNC(=O)CC[C@H](NC(=O)CC[C@H](NC(=O)CCCCCCCCCCCCCCCCCCC(=O)O)C(=O)O)C(=O)O)C(=O)N[C@@H](CC(N)=O)C(=O)N[C@@H]([C@@H](C)O)C(=O)N[C@@H](C)C(=O)N[C@@H]([C@@H](C)O)C(=O)N1)[C@@H](C)O)C(=O)N1CCC[C@H]1C(=O)N[C@@H](CO)C(=O)N[C@@H](CO)C(=O)N[C@H](C(=O)N[C@@H](CC(N)=O)C(=O)N[C@H](C(=O)NCC(=O)N1CCC[C@H]1C(=O)N[C@@H](CCC(=O)O)C(=O)N[C@H](C(=O)N[C@@H](Cc1ccc(O)cc1)C(N)=O)[C@@H](C)O)C(C)C)[C@@H](C)O)
